{"source": "paper PMC4837482", "about": "“The complex binding mode of the peptide hormone H2 relaxin to its receptor RXFP1” (Nature Communications, 2016)", "molecules": {"B1": {"name": "RXFP1 G41A/D42A, full length (receptor)", "chain": "QDVKCSLGYFPCGNITKCLPQLLHCNGVDDCGNQADEDNCAANNGWSLQFDKYFASYYKMTSQYPFEAETPECLVGSVPVQCLCQGLELDCDETNLRAVPSVSSNVTAMSLQWNLIRKLPPDCFKNYHDLQKLYLQNNKITSISIYAFRGLNSLTKLYLSHNRITFLKPGVFEDLHRLEWLIIEDNHLSRISPPTFYGLNSLILLVLMNNVLTRLPDKPLCQHMPRLHWLDLEGNHIHNLRNLTFISCSNLTVLVMRKNKINHLNENTFAPLQKLDELDLGSNKIENLPPLIFKDLKELSQLNLSYNPIQKIQANQFDYLVKLKSLSLEGIEISNIQQRMFRPLMNLSHIYFKKFQYCGYAPHVRSCKPNTDGISSLENLLASIIQRVFVWVVSAVTCFGNIFVICMRPYIRSENKLYAMSIISLCCADCLMGIYLFVIGGFDLKFRGEYNKHAQLWMESTHCQLVGSLAILSTEVSVLLLTFLTLEKYICIVYPFRCVRPGKCRTITVLILIWITGFIVAFIPLSNKEFFKNYYGTNGVCFPLHSEDTESIGAQIYSVAIFLGINLAAFIIIVFSYGSMFYSVHQSAITATEIRNQVKKEMILAKRFFFIVFTDALCWIPIFVVKFLSLLQVEIPGTITSWVVIFILPINSALNPILYTLTTRPFKEMIHRFWYNYRQRKSMDSKGQKTYAPSFIWVEMWPLQEMPPELMKPDLFTYPCEMSLISQSTRLNSYS"}, "B2": {"name": "RXFP1 G45A/W46A, full length (receptor)", "chain": "QDVKCSLGYFPCGNITKCLPQLLHCNGVDDCGNQADEDNCGDNNAASLQFDKYFASYYKMTSQYPFEAETPECLVGSVPVQCLCQGLELDCDETNLRAVPSVSSNVTAMSLQWNLIRKLPPDCFKNYHDLQKLYLQNNKITSISIYAFRGLNSLTKLYLSHNRITFLKPGVFEDLHRLEWLIIEDNHLSRISPPTFYGLNSLILLVLMNNVLTRLPDKPLCQHMPRLHWLDLEGNHIHNLRNLTFISCSNLTVLVMRKNKINHLNENTFAPLQKLDELDLGSNKIENLPPLIFKDLKELSQLNLSYNPIQKIQANQFDYLVKLKSLSLEGIEISNIQQRMFRPLMNLSHIYFKKFQYCGYAPHVRSCKPNTDGISSLENLLASIIQRVFVWVVSAVTCFGNIFVICMRPYIRSENKLYAMSIISLCCADCLMGIYLFVIGGFDLKFRGEYNKHAQLWMESTHCQLVGSLAILSTEVSVLLLTFLTLEKYICIVYPFRCVRPGKCRTITVLILIWITGFIVAFIPLSNKEFFKNYYGTNGVCFPLHSEDTESIGAQIYSVAIFLGINLAAFIIIVFSYGSMFYSVHQSAITATEIRNQVKKEMILAKRFFFIVFTDALCWIPIFVVKFLSLLQVEIPGTITSWVVIFILPINSALNPILYTLTTRPFKEMIHRFWYNYRQRKSMDSKGQKTYAPSFIWVEMWPLQEMPPELMKPDLFTYPCEMSLISQSTRLNSYS"}}, "key": {"RXFP1 [1]": {"biological_target": "T1, RXFP1 (Homo sapiens, UniProt Q9HBX9)", "T1 construct": "transiently transfected human embryonic kidney (HEK) 293T cells expressing full-length RXFP1 and mutants; expressed in transfected cells; host or cells: HEK293T", "T1 sequence (Q9HBX9 1-757)": "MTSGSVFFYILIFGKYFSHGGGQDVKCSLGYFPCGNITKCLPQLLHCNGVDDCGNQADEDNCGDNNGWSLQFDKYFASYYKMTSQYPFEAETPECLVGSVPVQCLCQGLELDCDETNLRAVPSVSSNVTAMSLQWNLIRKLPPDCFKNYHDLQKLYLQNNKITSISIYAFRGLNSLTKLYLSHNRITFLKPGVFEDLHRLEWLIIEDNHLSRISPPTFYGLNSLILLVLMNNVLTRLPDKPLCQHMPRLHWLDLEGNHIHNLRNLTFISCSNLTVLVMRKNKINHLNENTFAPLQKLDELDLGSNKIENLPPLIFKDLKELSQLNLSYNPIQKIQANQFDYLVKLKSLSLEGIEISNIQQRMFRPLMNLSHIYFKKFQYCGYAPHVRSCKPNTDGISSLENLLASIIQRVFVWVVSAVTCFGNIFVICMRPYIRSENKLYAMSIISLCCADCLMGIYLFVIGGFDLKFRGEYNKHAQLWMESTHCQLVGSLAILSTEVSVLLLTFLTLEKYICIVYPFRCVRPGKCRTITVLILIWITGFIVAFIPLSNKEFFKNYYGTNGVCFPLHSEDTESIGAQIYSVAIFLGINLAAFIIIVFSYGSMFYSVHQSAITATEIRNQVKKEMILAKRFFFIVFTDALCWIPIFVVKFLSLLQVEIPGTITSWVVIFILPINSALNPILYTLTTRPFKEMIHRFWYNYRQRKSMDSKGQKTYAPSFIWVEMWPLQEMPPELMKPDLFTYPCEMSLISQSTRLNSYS", "conditions": "versus H2 relaxin; cited from earlier work"}, "RXFP1(1–72)": {"biological_target": "T2, RXFP1(1–72) (Homo sapiens, UniProt Q9HBX9)", "T2 construct": "GB1 (N, cleaved yes); made in house; host or cells: E. coli BL21 (DE3) trxB", "T2 sequence (Q9HBX9 23-94 limits assumed)": "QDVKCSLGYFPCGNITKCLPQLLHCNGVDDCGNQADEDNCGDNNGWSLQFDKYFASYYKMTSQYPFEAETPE", "assay": "NMR competition titration against the RXFP1(1–72)/Mn2+-DTPA-(A)-H2 complex", "assay_type": "binding", "conditions": "50 μM peptide added to 50 μM 15N-RXFP1(1–72) with 0.2 μM Mn2+-DTPA-(A)-H2; pH 6.8, 25 °C", "protocol": "All RXFP1(1–72) protein samples for nuclear magnetic resonance (NMR) experiments were prepared from lyophilized protein in 50 mM imidazole, with 10 mM CaCl2 at pH 6.8. Recombinant human gene-2 H2 relaxin peptide was kindly provided by Corthera. EL1^(475–486)/EL2-GB1 samples were prepared as described above. Titrant and titrand were dialyzed in the same buffer in the same vessel. All NMR experiments were routinely collected at 25 °C on a 700-MHz Bruker Avance HDIII spectrometer equipped with triple resonance cryoprobe. […] Backbone assignments were made from 3D HNCACB, HNCOCACB, HNCO and HNCACO experiments. Spectra were processed using NMRPipe (ref. [43]) and typically Fourier-transformed after applying Lorentz-to-Gauss window functions in the direct dimension and cosine bells in the indirect dimensions. NMR data were analysed using SPARKY (Goddard, T.D. and Kneller, D.G., University of California, San Francisco). Assignments of the mutant RXFP1(1–72) proteins were determined from the assignments of wild-type RXFP1(1–72).\n^15N{^1H}-NOE experiments[45] (2,048 × 256 data points) were acquired with a saturation pulse of 4 s and an additional relaxation delay of 5 s. Sample conditions were 150 μM RXFP(1–72) or mutants either without or with 450 μM H2 relaxin. Binding to Mn^2+-DTPA-(A)-H2 to RXFP1(1–72) and mutants was monitored by recording 2D ^1H-^15N HSQC (2,048 × 256 data points) for 0.2 μM Mn^2+-DTPA-(A)-H2 against 50 μM RXFP1(1–72). H2 relaxin and its truncates such as A-chain (9–24), H2/I5 chimera and Phe23Ala A-chain mutant H2 were titrated into a complex of 50 μM RXFP1(1–72) and 0.2 μM Mn^2+-DTPA-(A)-H2 with increasing concentrations ranging from 5 to 50 μM."}, "RXFP1 [2]": {"biological_target": "T1, RXFP1", "conditions": "versus H2 relaxin; cited from earlier work", "remark": "listed apart in the source"}, "[3]": {"biological_target": "T3, Europium-labelled H2 relaxin (human, UniProt P04090 162-185; P04090 25-53, DTPA cage loaded with Eu^3+ on the N-terminus of the A-chain)", "T3 construct": "A chain of human gene-2 (H2) relaxin; numbers count on: the A chain; B chain of human gene-2 (H2) relaxin; numbers count on: the B chain; also called Eu-H2 relaxin; Eu-H2", "assay": "europium-labelled ligand saturation binding on cells (time-resolved fluorescence); HEK293T cells transiently transfected with receptor, 96-well plates; increasing Eu-H2 relaxin (maximum 15 nM) with or without 1 μM unlabelled H2 relaxin, 1 h, room temperature; 20 mM HEPES pH 7.5, 1.5 mM CaCl2, 50 mM NaCl, 0.01% NaN3, 1% BSA; one-site fit", "conditions": "one partner purified"}}, "note": "Entries after “also recorded” stand apart in the source; their conditions may differ. Where no end group is shown, it is not given here.", "data": [{"molecule": "H2-(B1–25): B-chain truncate of H2 relaxin (DSWMEEVIKLCGRELVRAQIAICGM; ends and bridges not checked; cysteine pairing not given here; UniProt P04090 25-49, looked up, fragment)", "values": [{"measurement": "affinity at RXFP1", "setting": "RXFP1 [1]", "value": "retain their native affinity and potency"}, {"measurement": "competition with Mn2+-DTPA-(A)-H2 for RXFP1(1–72) (peak intensities, chemical shifts)", "setting": "RXFP1(1–72)", "value": "did not detect any significant difference in binding"}, {"measurement": "potency at RXFP1", "setting": "RXFP1 [2]", "value": "retain their native affinity and potency"}]}, {"molecule": "F23A: H2 relaxin mutant F23A; destabilizes the secondary structure of the A-chain (QLYSALANKCCHVGCTKRSLARAC; ends and bridges not checked; cysteine pairing not given here; UniProt P04090 162-185, looked up, variant F23A)", "values": [{"measurement": "binding affinity for RXFP1", "setting": "RXFP1 [1]", "value": "significant loss"}, {"measurement": "competition with Mn2+-DTPA-(A)-H2 for RXFP1(1–72) (peak intensities, chemical shifts)", "setting": "RXFP1(1–72)", "value": "did not compete"}, {"measurement": "activation of RXFP1", "setting": "RXFP1 [2]", "value": "significant loss"}]}, {"molecule": "A-chain (9–24) H2: N-terminally truncated A-chain (9–24) H2 peptide (KCCHVGCTKRSLARFC; ends and bridges not checked; cysteine pairing not given here; UniProt P04090 170-185, looked up, fragment)", "values": [{"measurement": "affinity for RXFP1", "setting": "RXFP1 [1]", "value": "decreased"}, {"measurement": "competition with Mn2+-DTPA-(A)-H2 for RXFP1(1–72) (peak intensities, chemical shifts)", "setting": "RXFP1(1–72)", "value": "the gain in peak intensity was not as pronounced as that recorded with native H2 peptide"}, {"measurement": "potency for RXFP1", "setting": "RXFP1 [2]", "value": "decreased"}]}, {"molecule": "H2/I5-2: A-chain H2 chimeric analogue; His12 and Val13 (H2) replaced by Thr12 and Asp13 (INSL5) (QLYSALANKCCTDGCTKRSLARFC; ends and bridges not checked; cysteine pairing not given here; UniProt P04090 162-185, looked up, variant H12T V13D)", "values": [{"measurement": "binding affinity for RXFP1", "setting": "RXFP1 [1]", "value": "modest loss of binding"}, {"measurement": "competition with Mn2+-DTPA-(A)-H2 for RXFP1(1–72) (peak intensities, chemical shifts)", "setting": "RXFP1(1–72)", "value": "no changes were observed in peak intensities or chemical shifts; also recorded: could not bind"}, {"measurement": "activation of RXFP1", "setting": "RXFP1 [2]", "value": "retains the ability to activate"}]}, {"molecule": "H2-(B5–29): B-chain truncate of H2 relaxin (EEVIKLCGRELVRAQIAICGMSTWS; ends and bridges not checked; cysteine pairing not given here; UniProt P04090 29-53, looked up, fragment)", "values": [{"measurement": "affinity at RXFP1", "setting": "RXFP1 [1]", "value": "retain their native affinity and potency"}, {"measurement": "competition with Mn2+-DTPA-(A)-H2 for RXFP1(1–72) (peak intensities, chemical shifts)", "setting": "RXFP1(1–72)", "value": "did not detect any significant difference in binding"}, {"measurement": "potency at RXFP1", "setting": "RXFP1 [2]", "value": "retain their native affinity and potency"}]}, {"molecule": "B1", "values": [{"measurement": "Kd", "setting": "[3]", "value": "> 20", "unit": "nM"}]}, {"molecule": "B2", "values": [{"measurement": "Kd", "setting": "[3]", "value": "> 20", "unit": "nM"}]}]}
